The values that follow come from PMC11101478, “Structural mechanism of bacteriophage lambda tail’s interaction with the bacterial receptor” (Nature Communications, 2024).

B1: gpI (bacteriophage lambda, in the purified tail) (natural protein)
chain: MAATHTLPLASPGMARICLYGDLQRFGRRIDLRVKTGAEAIRALATQLPAFRQKLSDGWYQVRIAGRDVSTSGLTAQLHETLPDGAVIHIVPRVAGAKSGGVFQIVLGAAAIAGSFFTAGATLAAWGAAIGAGGMTGILFSLGASMVLGGVAQMLAPKARTPRIQTTDNGKQNTYFSSLDNMVAQGNVLPVLYGEMRVGSRVVSQEISTADEGDGGQVVVIGR
notes: gpI of bacteriophage lambda: unresolved N-terminal domain, helices H1 and H2, plug domain (159-175), beta-strands joined by loops; in the open structure only residues from 167 onward are seen; Three units in the tail tip; source: E. coli BL21 (DE3) pLysS, as part of the purified lambda tail
B2: gpM (bacteriophage lambda tail protein, in the purified tail) (natural protein)
chain: MKTFRWKVKPGMDVASVPSVRKVRFGDGYSQRAPAGLNANLKTYSVTLSVPREEATVLESFLEEHGGWKSFLWTPPYEWRQIKVTCAKWSSRVSMLRVEFSAEFEQVVN
notes: Tail protein gpM of bacteriophage lambda; also called gpM ring; gpM hexamer; source: E. coli BL21 (DE3) pLysS, as part of the purified lambda tail
B3: gpL (bacteriophage lambda, in the purified tail) (natural protein)
chain: MQDIRQETLNECTRAEQSASVVLWEIDLTEVGGERYFFCNEQNEKGEPVTWQGRQYQPYPIQGSGFELNGKGTSTRPTLTVSNLYGMVTGMAEDMQSLVGGTVVRRKVYARFLDAVNFVNGNSYADPEQEVISRWRIEQCSELSAVSASFVLSTPTETDGAVFPGRIMLANTCTWTYRGDECGYSGPAVADEYDQPTSDITKDKCSKCLSGCKFRNNVGNFGGFLSINKLSQ
notes: gpL of bacteriophage lambda; consists of HDI and 4Fe-4S domains; Three units in the tail tip; also called baseplate hub protein; source: E. coli BL21 (DE3) pLysS, as part of the purified lambda tail
B4: Shigella sonnei 3070 LamB (receptor, UniProt Q3YUU9 26-446, looked up)
chain: VDFHGYARSGIGWTGSGGEQQCFQTTGAQSKYRLGNECETYAELKLGQEVWKEGDKSFYFDTNVAYSVAQQNDWEATDPAFREANVQGKNLIEWLPGSTIWAGKRFYQRHDVHMIDFYYWDISGPGAGLENIDVGFGKLSLAATRSSEAGGSSSFASNNIYDYTNETANDVFDVRLAQMEINPGGTLELGVDYGRANLRDNYRLVDGASKDGWLFTAEHTQSVLKGFNKFVVQYATDSMTSQGKGLSQGSGVAFDNEKFAYNINNNGHMLRILDHGAISMGDNWDMMYVGMYQDINWDNDNGTKWWTVGIRPMYKWTPIMSTVMEIGYDNVESQRTGDKNNQYKITLAQQWQAGDSIWSRPAIRVFATYAKWDEKWGYDYNGDSKVNPNYGKAVPADFNGGSFGRGDSDEWTFGAQMEIWW
notes: LamB (maltoporin) of Shigella sonnei 3070; own N-terminal signal peptide replaced by the OMPG signal peptide, Twin-Strep-tag after the signal peptide; differs from E. coli LamB in seven amino acids within the 381-390 region; Used in 0.02% DDM for BLI and for the gpJ713 complex, and in an MSP2N2 nanodisc (E. coli polar lipids) for the tail complex; also called ssLamB; LamB from Shigella sonnei …
B5: gpJ713 (C-terminal truncation of bacteriophage lambda gpJ, starting from residue 713) (domain or fragment, UniProt P03749 713-1132, looked up)
chain: APAAPSRIELTPGYFQITATPHLAVYDPTVQFEFWFSEKQIADIRQVETSTRYLGTALYWIAASINIKPGHDYYFYIRSVNTVGKSAFVEAVGRASDDAEGYLDFFKGKITESHLGKELLEKVELTEDNASRLEEFSKEWKDASDKWNAMWAVKIEQTKDGKHYVAGIGLSMEDTEEGKLSQFLVAANRIAFIDPANGNETPMFVAQGNQIFMNDVFLKRLTAPTITSGGNPPAFSLTPDGKLTAKNADISGSVNANSGTLSNVTIAENCTINGTLRAEKIVGDIVKAASAAFPRQRESSVDWPSGTRTVTVTDDHPFDRQIVVLPLTFRGSKRTVSGRTTYSMCYLKVLMNGAVIYDGAANEAVQVFSRIVDMPAGRGNVILTFTLTSTRHSADIPPYTFASDVQVMVIKKQALGISVV
notes: holds FNIIIs, AHS, CSF and RBD; Trimer (C3 symmetry in the closed state map); also called central tail fiber; His-tagged gpJ713; source: E. coli BL21 (DE3), purified (nickel gravity column, gel filtration); not shown: 6xHis, N-terminal, kept
B6: gpJ (bacteriophage lambda tip protein, in the purified tail) (natural protein)
chain: MGKGSSKGHTPREAKDNLKSTQLLSVIDAISEGPIEGPVDGLKSVLLNSTPVLDTEGNTNISGVTVVFRAGEQEQTPPEGFESSGSETVLGTEVKYDTPITRTITSANIDRLRFTFGVQALVETTSKGDRNPSEVRLLVQIQRNGGWVTEKDITIKGKTTSQYLASVVMGNLPPRPFNIRMRRMTPDSTTDQLQNKTLWSSYTEIIDVKQCYPNTALVGVQVDSEQFGSQQVSRNYHLRGRILQVPSNYNPQTRQYSGIWDGTFKPAYSNNMAWCLWDMLTHPRYGMGKRLGAADVDKWALYVIGQYCDQSVPDGFGGTEPRITCNAYLTTQRKAWDVLSDFCSAMRCMPVWNGQTLTFVQDRPSDKTWTYNRSNVVMPDDGAPFRYSFSALKDRHNAVEVNWIDPNNGWETATELVEDTQAIARYGRNVTKMDAFGCTSRGQAHRAGLWLIKTELLETQTVDFSVGAEGLRHVPGDVIEICDDDYAGISTGGRVLAVNSQTRTLTLDREITLPSSGTALISLVDGSGNPVSVEVQSVTDGVKVKVSRVPDGVAEYSVWELKLPTLRQRLFRCVSIRENDDGTYAITAVQHVPEKEAIVDNGAHFDGEQSGTVNGVTPPAVQHLTAEVTADSGEYQVLARWDTPKVVKGVSFLLRLTVTADDGSERLVSTARTTETTYRFTQLALGNYRLTVRAVNAWGQQGDPASVSFRIAAPAAPSRIELTPGYFQITATPHLAVYDPTVQFEFWFSEKQIADIRQVETSTRYLGTALYWIAASINIKPGHDYYFYIRSVNTVGKSAFVEAVGRASDDAEGYLDFFKGKITESHLGKELLEKVELTEDNASRLEEFSKEWKDASDKWNAMWAVKIEQTKDGKHYVAGIGLSMEDTEEGKLSQFLVAANRIAFIDPANGNETPMFVAQGNQIFMNDVFLKRLTAPTITSGGNPPAFSLTPDGKLTAKNADISGSVNANSGTLSNVTIAENCTINGTLRAEKIVGDIVKAASAAFPRQRESSVDWPSGTRTVTVTDDHPFDRQIVVLPLTFRGSKRTVSGRTTYSMCYLKVLMNGAVIYDGAANEAVQVFSRIVDMPAGRGNVILTFTLTSTRHSADIPPYTFASDVQVMVIKKQALGISVV
notes: Tip protein gpJ of bacteriophage lambda, 1132 residues: hub domains (HDII-ins1, HDII-ins2, HDII, HDIII, HDIV, OB), FNIII-1, FNIII-2, AHS, CSF, RBD; also called baseplate hub protein; central tail fiber protein; source: E. coli BL21 (DE3) pLysS, as part of the purified lambda tail

The target in data set [1] is B6. As to the kind of experiment: cryo-EM structure; purified lambda tail mixed with ssLamB in MSP2N2 nanodisc, room temperature 50 min, nickel column and Superose 6 Increase; open state of the tail. The settings on record: both partners purified.
Data set [2] deals with B3. The data set is described as above. Conditions: both partners purified.
Data set [3] deals with the molecule itself. Described as above.
The target of another data set is T1, E. coli LamB A384S (E. coli, UniProt P02943 26-446, A384S).
T1 construct: LamB (maltoporin) of E. coli with the single-point mutation A384S; the text says A384S; also called ecLamB A384S; source: E. coli BL21 (DE3), isolated from the outer membrane in DDM, purified (Strep-Tactin XT, gel filtration); not shown: Twin-Strep-tag, N-terminal, kept
As to the kind of experiment: BLI; His-tagged gpJ713 (2 ug/mL) captured on Ni-NTA sensors; five concentrations of Twin-Strep-tagged LamB in lysis buffer with 0.02% DDM; dissociation in the same buffer. The settings on record: both partners purified.

In another data set the target is T2, E. coli LamB (E. coli, UniProt P02943 26-446).
T2 construct: LamB (maltoporin) of E. coli; own N-terminal signal peptide replaced by the OMPG signal peptide, Twin-Strep-tag after the signal peptide; also called ecLamB; E. coli's LamB; source: E. coli BL21 (DE3), isolated from the outer membrane in DDM, purified (Strep-Tactin XT, gel filtration); not shown: Twin-Strep-tag, N-terminal, kept
The description is as above. Conditions: both partners purified.

Data set [4] deals with the molecule itself. As to the kind of experiment: cryo-EM structure; gpJ713 alone, closed state; C3 symmetry; map at 2.76 A.

For B1, the binding result in data set [1] is on record as “binds”.

B2: the binding result in data set [2] and in data set [1] was “binds” in each case. Further, the “stoichiometry N” value in data set [3] is 6. Take B3: the binding result in data set [1] was “binds”. B4: in data set [3], the “stoichiometry N” value came out at 3. B5: the binding result with E. coli LamB A384S is “binds”. Binding with E. coli LamB was characterised by a dissociation constant (Kd) of 1.76 nM. In addition, the “stoichiometry N” value in data set [4] was found to be 3. In the case of B6, in data set [3], the “stoichiometry N” value was 3.
